One substance from PMC3868960 can be followed below.

The experiment has as its target tumor necrosis factor-related apoptosis-inducing ligand (TRAIL) (human) (UniProt P50591). Nature of the experiment: non-reducing SDS-PAGE.

Take “tumor necrosis factor-related apoptosis-inducing ligand (TRAIL) (from UniProt P50591 1-281)”: the percent dimer was 27.2%, the percent monomer was determined as 70.1% and the percent trimer was determined as 2.62%.
